Reference: patent publication US20220119534A1 (DRAGONFLY THERAPEUTICS, published 2022)

Key:
mFc-hNKG2D [1] = biological target: T1, mFc-hNKG2D (human, UniProt P26718 73-216); experiment: SPR Biacore 8K 37 C; mFc-hNKG2D captured on anti-mFc chip, TriNKET as analyte; 1:1 kinetic fit; after 0.02% H2O2 24 h
T1 construct: extracellular domain; Made in house (Dragonfly Tx); the order of tag and ECD follows the name mFc-hNKG2D; also called mFc-tagged human NKG2D; not shown: mouse Fc tag
T1 sequence (looked up): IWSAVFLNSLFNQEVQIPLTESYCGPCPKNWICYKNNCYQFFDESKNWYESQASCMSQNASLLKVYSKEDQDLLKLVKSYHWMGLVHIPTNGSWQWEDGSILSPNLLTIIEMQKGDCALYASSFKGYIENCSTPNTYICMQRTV

mFc-cNKG2D = biological target: T2, mFc-cNKG2D (cynomolgus monkey, UniProt P61252 73-216); experiment: SPR Biacore 37 C; mFc-tagged cyno NKG2D dimer, TriNKET as analyte; kinetics fit; average of 4
T2 construct: extracellular domain; Made in house (Dragonfly Tx); also called recombinant cyno NKG2D extracellular domain (ECD); mFc-tagged cyno NKG2D dimer; not shown: mouse Fc tag
T2 sequence (looked up): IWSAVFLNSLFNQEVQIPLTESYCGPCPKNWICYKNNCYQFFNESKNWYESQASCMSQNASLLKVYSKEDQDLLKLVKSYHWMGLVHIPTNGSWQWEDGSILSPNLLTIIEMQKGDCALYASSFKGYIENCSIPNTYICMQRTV

mFc-hNKG2D [2] = biological target: T1, mFc-hNKG2D; experiment: SPR Biacore 8K 37 C; mFc-hNKG2D captured on anti-mFc chip, TriNKET as analyte; 1:1 kinetic fit; after 4 wks 40 C in phosphate/citrate/NaCl pH 7.8, n=2
Protocol: Association was monitored for 60 seconds and dissociation was monitored for 60 seconds. Surfaces were regenerated between cycles with three pulses of 10 mM glycine-HCl, pH 1.7 injected for 20 seconds at 100 μL/min. HBS-EP+ (1×) buffer was used throughout the experiment. Data were analyzed using Biacore 8K Insight evaluation software (GE Healthcare).

B1: F3'-1602 TriNKET (bispecific antibody, human IgG1, kappa)
chain: QLQLQESGPGLVKPSETLSLTCTVSGFSLTNYGLHWIRQPPGKCLEWIGVIWSGGKTDYNPSLKSRVTISKDTSKNQFSLKLSSVQAADTAVYYCAKYDYDDSLDYWGQGTLVTVSSGGGGSGGGGSGGGGSGGGGSDIQMTQSPSSLSASVGDRVTITCHASQNINFWLSWYQQKPGKAPKLLIYEASNLHTGVPSRFSGSGSGTRFTLTISSLQPEDIATYYCQQSHSYPLTFGCGTKLEIKGSDKTHTCPPCPAPELLGGPSVFLFPPKPKDTLMISRTPEVTCVVVDVSHEDPEVKFNWYVDGVEVHNAKTKPREEQYNSTYRVVSVLTVLHQDWLNGKEYKCKVSNKALPAPIEKTISKAKGQPREPRVYTLPPCRDELTKNQVSLTCLVKGFYPSDIAVEWESNGQPENNYKTTPPVLVSDGSFTLYSKLTVDKSRWQQGNVFSCSVMHEALHNHYTQKSLSLSPG
heavy: EVQLVESGGGLVKPGGSLRLSCAASGFTFSSYSMNWVRQAPGKGLEWVSSISSSSSYIYYADSVKGRFTISRDNAKNSLYLQMNSLRAEDTAVYYCARGAPIGAAAGWFDPWGQGTLVTVSSASTKGPSVFPLAPSSKSTSGGTAALGCLVKDYFPEPVTVSWNSGALTSGVHTFPAVLQSSGLYSLSSVVTVPSSSLGTQTYICNVNHKPSNTKVDKKVEPKSCDKTHTCPPCPAPELLGGPSVFLFPPKPKDTLMISRTPEVTCVVVDVSHEDPEVKFNWYVDGVEVHNAKTKPREEQYNSTYRVVSVLTVLHQDWLNGKEYKCKVSNKALPAPIEKTISKAKGQPREPQVCTLPPSRDELTENQVSLTCLVKGFYPSDIAVEWESNGQPENNYKTTPPVLDSDGSFFLYSWLTVDKSRWQQGNVFSCSVMHEALHNHYTQKSLSLSPG
light: DIQMTQSPSSVSASVGDRVTITCRASQGISSWLAWYQQKPGKAPKLLIYAASSLQSGVPSRFSGSGSGTDFTLTISSLQPEDFATYYCQQGVSFPRTFGGGTKVEIKRTVAAPSVFIFPPSDEQLKSGTASVVCLLNNFYPREAKVQWKVDNALQSGNSQESVTEQDSKDSTYSLSSTLTLSKADYEKHKVYACEVTHQGLSSPVTKSFNRGEC
notes: Trispecific F3' format: CLEC12A scFv-Fc paired with NKG2D Fab-Fc; Stressed and control samples of the stability studies are the same molecule; also called AB0237
Kd (mFc-hNKG2D [1]): 722 nM
koff (mFc-hNKG2D [1]): 0.107 s⁻¹
kon (mFc-hNKG2D [1]): 148000 M⁻¹ s⁻¹
Kd (mFc-cNKG2D): 839 nM
Kd (mFc-hNKG2D [2]): 869 nM
koff (mFc-hNKG2D [2]): 0.133 s⁻¹
kon (mFc-hNKG2D [2]): 153000 M⁻¹ s⁻¹
